Test system: MCF10A
Assay: percent viability (nuclei count relative to siNT); higher = more viable cells
Conditions: 20 nM; 72 h
Description: (§1)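 After 72 h, cells were fixed and stained with Hoechst and anti-fibrillarin, and nucleoli per nucleus were counted with CellProfiler. Values are plate-adjusted percent effect for the one-nucleolus and 5+ nucleoli phenotypes, normalised to siNT (0%) and to the positive controls siNOL11 or siKIF11 (100%), as the mean of biological triplicates. Percent viability is the nuclei count relative to siNT.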

Sequence	percent viability [%]
CUGGGACAGGAGGAGGAGGCAG [hsa-miR-4298]	67.8
AGCAGACUUGACCUACAAUUA [hsa-miR-4771]	53.6
AGCUCUAGAAAGAUUGUUGACC [hsa-miR-6502-5p]	93.5
GAAAGUACAGAUCGGAUGGGU [hsa-miR-8054]	55.8
UUUUAAGGACACUGAGGGAUC [hsa-miR-7856-5p]	70.5
AACAGGUGACUGGUUAGACAA [hsa-miR-552]	123
AAAGUGCUUCUCUUUGGUGGGU [hsa-miR-520d-3p]	74.3
UUUAGGAUAAGCUUGACUUUUG [hsa-miR-651]	140
UACCCUGUAGAUCCGAAUUUGUG [hsa-miR-10a-5p]	39.9
CCCUGUUCUAUGCCCUGAGGGA [hsa-miR-1266-3p]	90.7
UAACACUGUCUGGUAACGAUGU [hsa-miR-200a-3p]	75.6
GAGCUUGGAUGAGCUGGGCUGA [hsa-miR-4538]	25.3
UGCCCUUAAAGGUGAACCCAGU [hsa-miR-938]	57.4
UCAGUAAAUGUUUAUUAGAUGA [hsa-miR-545-5p]	175
UAAGUGCUUCCAUGUUUGAGUGU [hsa-miR-302d-3p]	68
GUGAGUCAGGGUGGGGCUGG [hsa-miR-937-5p]	41.5
UGUAAACAUCCCCGACUGGAAG [hsa-miR-30d-5p]	62.7
AGGGGUGUGGAAAGAGGCAGAACA [hsa-miR-6747-5p]	40
CAAGAACCUCAGUUGCUUUUGU [hsa-miR-548b-3p]	83.5
UAAUGCCCCUAAAAAUCCUUAU [hsa-miR-365b-3p]	37.9
CUCGUGGGCUCUGGCCACGGCC [hsa-miR-3677-3p]	56.2
ACCCUUGAGCCUGAUCCCUAGC [hsa-miR-4780]	99.8
GACACAUGACCAUAAAUGCUAA [hsa-miR-4643]	109

Sequence	percent viability [%]
CUAGUGAGGGACAGAACCAGGAUUC [hsa-miR-921]	48.8
UGAGCUAAAUGUGUGCUGGGA [hsa-miR-610]	131
ACCGCCUGCCCAGUGA [hsa-miR-4485-5p]	70.4
CGGGGCCGUAGCACUGUCUGAGA [hsa-miR-128-1-5p]	26.1
UAGCAAAAACUGCAGUUACUUU [hsa-miR-548p]	114
CAAGUCACUAGUGGUUCCGUU [hsa-miR-224-5p]	38.7
AUCAUAGAGGAAAAUCCACGU [hsa-miR-376a-3p]	52.2
UGUGCAGCAGGCCAACCGAGA [hsa-miR-3944-5p]	69
GAAGCUCUCCCCUCCCCGCAG [hsa-miR-6796-3p]	103
CCAUGGAUCUCCAGGUGGGU [hsa-miR-490-5p]	63.5
CUGCCCUGGCCCGAGGGACCGA [hsa-miR-874]	62.9
AGGAAGCAAGAGAACCCUGUGG [hsa-miR-6828-5p]	26.9
AUAUGUAUAUGUGACUGCUACU [hsa-miR-3924]	32
UGCUUCCUUUCAGAGGGU [hsa-miR-516b-3p]	78.4
AUCCUCUUUCGUCCUUCCCACU [hsa-miR-6881-3p]	49.2
ACAGGAGUGGGGGUGGGACAU [hsa-miR-4433-3p]	38.2
UAUGUAAUAUGGUCCACAUCUU [hsa-miR-380-3p]	90
CCAGGCUCUGCAGUGGGA [hsa-miR-3155b]	65.5
UGAUCUCACCGCUGCCUCCUUC [hsa-miR-4695-3p]	93.9
UAGCAAUACAGUACAAAUAUAGU [hsa-miR-4703-5p]	131
CCUGCAACUUUGCCUGAUCAGA [hsa-miR-4772-3p]	47.3
UGAGAUGACACUGUAGCU [hsa-miR-4770]	33.4

Test system: MCF10A
Assay: 5+ nucleoli phenotype percent effect (relative to siNT 0% and siKIF11 100%); higher = more cells with five or more nucleoli
Conditions: 20 nM; 72 h
Description: as §1

Sequence	5+ nucleoli phenotype percent effect [%]
CUGGGACAGGAGGAGGAGGCAG [hsa-miR-4298]	39.2
AGCAGACUUGACCUACAAUUA [hsa-miR-4771]	3.81
AGCUCUAGAAAGAUUGUUGACC [hsa-miR-6502-5p]	66.5
GAAAGUACAGAUCGGAUGGGU [hsa-miR-8054]	24.3
UUUUAAGGACACUGAGGGAUC [hsa-miR-7856-5p]	57.8
AACAGGUGACUGGUUAGACAA [hsa-miR-552]	36.6
AAAGUGCUUCUCUUUGGUGGGU [hsa-miR-520d-3p]	58.4
UUUAGGAUAAGCUUGACUUUUG [hsa-miR-651]	33.3
UACCCUGUAGAUCCGAAUUUGUG [hsa-miR-10a-5p]	-19.7
CCCUGUUCUAUGCCCUGAGGGA [hsa-miR-1266-3p]	47.8
UAACACUGUCUGGUAACGAUGU [hsa-miR-200a-3p]	36.9
GAGCUUGGAUGAGCUGGGCUGA [hsa-miR-4538]	-29.6
UGCCCUUAAAGGUGAACCCAGU [hsa-miR-938]	6.12
UCAGUAAAUGUUUAUUAGAUGA [hsa-miR-545-5p]	38.8
UAAGUGCUUCCAUGUUUGAGUGU [hsa-miR-302d-3p]	63.5
GUGAGUCAGGGUGGGGCUGG [hsa-miR-937-5p]	-10.1
UGUAAACAUCCCCGACUGGAAG [hsa-miR-30d-5p]	30.3
AGGGGUGUGGAAAGAGGCAGAACA [hsa-miR-6747-5p]	37.7
CAAGAACCUCAGUUGCUUUUGU [hsa-miR-548b-3p]	39
UAAUGCCCCUAAAAAUCCUUAU [hsa-miR-365b-3p]	-12.3
CUCGUGGGCUCUGGCCACGGCC [hsa-miR-3677-3p]	-9.65
ACCCUUGAGCCUGAUCCCUAGC [hsa-miR-4780]	4
GACACAUGACCAUAAAUGCUAA [hsa-miR-4643]	36.8

Sequence	5+ nucleoli phenotype percent effect [%]
CUAGUGAGGGACAGAACCAGGAUUC [hsa-miR-921]	-15.6
UGAGCUAAAUGUGUGCUGGGA [hsa-miR-610]	20.7
ACCGCCUGCCCAGUGA [hsa-miR-4485-5p]	24.1
CGGGGCCGUAGCACUGUCUGAGA [hsa-miR-128-1-5p]	21.2
UAGCAAAAACUGCAGUUACUUU [hsa-miR-548p]	17.2
CAAGUCACUAGUGGUUCCGUU [hsa-miR-224-5p]	-41
AUCAUAGAGGAAAAUCCACGU [hsa-miR-376a-3p]	51.3
UGUGCAGCAGGCCAACCGAGA [hsa-miR-3944-5p]	4.63
GAAGCUCUCCCCUCCCCGCAG [hsa-miR-6796-3p]	5.79
CCAUGGAUCUCCAGGUGGGU [hsa-miR-490-5p]	16.2
CUGCCCUGGCCCGAGGGACCGA [hsa-miR-874]	-5.29
AGGAAGCAAGAGAACCCUGUGG [hsa-miR-6828-5p]	-41.5
AUAUGUAUAUGUGACUGCUACU [hsa-miR-3924]	-20.9
UGCUUCCUUUCAGAGGGU [hsa-miR-516b-3p]	-29.9
AUCCUCUUUCGUCCUUCCCACU [hsa-miR-6881-3p]	-36.4
ACAGGAGUGGGGGUGGGACAU [hsa-miR-4433-3p]	-0.614
UAUGUAAUAUGGUCCACAUCUU [hsa-miR-380-3p]	-13.1
CCAGGCUCUGCAGUGGGA [hsa-miR-3155b]	29.5
UGAUCUCACCGCUGCCUCCUUC [hsa-miR-4695-3p]	12.8
UAGCAAUACAGUACAAAUAUAGU [hsa-miR-4703-5p]	32.3
CCUGCAACUUUGCCUGAUCAGA [hsa-miR-4772-3p]	16.6
UGAGAUGACACUGUAGCU [hsa-miR-4770]	-3.17

Test system: MCF10A
Assay: one-nucleolus phenotype percent effect (relative to siNT 0% and siNOL11 100%); higher = more cells with one nucleolus (ribosome biogenesis inhibition)
Conditions: 20 nM; 72 h
Description: as §1

Sequence	one-nucleolus phenotype percent effect [%]
CUGGGACAGGAGGAGGAGGCAG [hsa-miR-4298]	-17.4
AGCAGACUUGACCUACAAUUA [hsa-miR-4771]	-9.9
AGCUCUAGAAAGAUUGUUGACC [hsa-miR-6502-5p]	-17.4
GAAAGUACAGAUCGGAUGGGU [hsa-miR-8054]	-3.34
UUUUAAGGACACUGAGGGAUC [hsa-miR-7856-5p]	-30.1
AACAGGUGACUGGUUAGACAA [hsa-miR-552]	-33.6
AAAGUGCUUCUCUUUGGUGGGU [hsa-miR-520d-3p]	-16.1
UUUAGGAUAAGCUUGACUUUUG [hsa-miR-651]	-20.4
UACCCUGUAGAUCCGAAUUUGUG [hsa-miR-10a-5p]	19.4
CCCUGUUCUAUGCCCUGAGGGA [hsa-miR-1266-3p]	-19.3
UAACACUGUCUGGUAACGAUGU [hsa-miR-200a-3p]	-6.99
GAGCUUGGAUGAGCUGGGCUGA [hsa-miR-4538]	14.4
UGCCCUUAAAGGUGAACCCAGU [hsa-miR-938]	6.19
UCAGUAAAUGUUUAUUAGAUGA [hsa-miR-545-5p]	-24.2
UAAGUGCUUCCAUGUUUGAGUGU [hsa-miR-302d-3p]	-16.6
GUGAGUCAGGGUGGGGCUGG [hsa-miR-937-5p]	19.2
UGUAAACAUCCCCGACUGGAAG [hsa-miR-30d-5p]	0.554
AGGGGUGUGGAAAGAGGCAGAACA [hsa-miR-6747-5p]	-4.28
CAAGAACCUCAGUUGCUUUUGU [hsa-miR-548b-3p]	-16.6
UAAUGCCCCUAAAAAUCCUUAU [hsa-miR-365b-3p]	5.41
CUCGUGGGCUCUGGCCACGGCC [hsa-miR-3677-3p]	-2.83
ACCCUUGAGCCUGAUCCCUAGC [hsa-miR-4780]	-13.2
GACACAUGACCAUAAAUGCUAA [hsa-miR-4643]	-11.7

Sequence	one-nucleolus phenotype percent effect [%]
CUAGUGAGGGACAGAACCAGGAUUC [hsa-miR-921]	31.9
UGAGCUAAAUGUGUGCUGGGA [hsa-miR-610]	-14.8
ACCGCCUGCCCAGUGA [hsa-miR-4485-5p]	-16.3
CGGGGCCGUAGCACUGUCUGAGA [hsa-miR-128-1-5p]	22.5
UAGCAAAAACUGCAGUUACUUU [hsa-miR-548p]	-21.8
CAAGUCACUAGUGGUUCCGUU [hsa-miR-224-5p]	15.4
AUCAUAGAGGAAAAUCCACGU [hsa-miR-376a-3p]	-19.3
UGUGCAGCAGGCCAACCGAGA [hsa-miR-3944-5p]	-7.88
GAAGCUCUCCCCUCCCCGCAG [hsa-miR-6796-3p]	-14.7
CCAUGGAUCUCCAGGUGGGU [hsa-miR-490-5p]	0.865
CUGCCCUGGCCCGAGGGACCGA [hsa-miR-874]	4.65
AGGAAGCAAGAGAACCCUGUGG [hsa-miR-6828-5p]	18.9
AUAUGUAUAUGUGACUGCUACU [hsa-miR-3924]	-20
UGCUUCCUUUCAGAGGGU [hsa-miR-516b-3p]	8.29
AUCCUCUUUCGUCCUUCCCACU [hsa-miR-6881-3p]	22.7
ACAGGAGUGGGGGUGGGACAU [hsa-miR-4433-3p]	6.34
UAUGUAAUAUGGUCCACAUCUU [hsa-miR-380-3p]	0.458
CCAGGCUCUGCAGUGGGA [hsa-miR-3155b]	-8.6
UGAUCUCACCGCUGCCUCCUUC [hsa-miR-4695-3p]	-9.6
UAGCAAUACAGUACAAAUAUAGU [hsa-miR-4703-5p]	-22
CCUGCAACUUUGCCUGAUCAGA [hsa-miR-4772-3p]	-15.1
UGAGAUGACACUGUAGCU [hsa-miR-4770]	11.7

Source: the supplement of paper PMC10899765
